The values that follow come from patent US20260062456A1.

Changes are numbered by the printed parent chain. Names may count otherwise.

Sequences and labels used below:
B1: non-stack variant CD155 IgV-Fc control (P18S/S65W/S67A/L104Q/G111R) (Fc fusion)
chain: WPPPGTGDVVVQAPTQVSGFLGDSVTLPCYLQVPNMEVTHVSQLTWARHGESGSMAVFHQTQGPWYAESKRLEFVAARLGAELRNASLRMFGLRVEDEGNYTCQFVTFPQRSRSVDIWLRVLAAAEPKSSDKTHTCPPCPAPELLGGPSVFLFPPKPKDTLMISRTPEVTCVVVDVSHEDPEVKFNWYVDGVEVHNAKTKPCEEQYGSTYRCVSVLTVLHQDWLNGKEYKCKVSNKALPAPIEKTISKAKGQPREPQVYTLPPSREEMTKNQVSLTCLVKGFYPSDIAVEWESNGQPENNYKTTPPVLDSDGSFFLYSKLTVDKSRWQQGNVFSCSVMHEALHNHYTQKSLSLSPGK
B2: variant PD-L1 IgV-Fc A33D/S75P (IgV SEQ ID NO 285) (Fc fusion)
chain: FTVTVPKDLYVVEYGSNMTIECKFPVEKQLDLDALIVYWEMEDKNIIQFVHGEEDLKVQHSSYRQRARLLKDQLPLGNAALQITDVKLQDAGVYRCVISYGGADYKRITVKVNAAAAEPKSSDKTHTCPPCPAPELLGGPSVFLFPPKPKDTLMISRTPEVTCVVVDVSHEDPEVKFNWYVDGVEVHNAKTKPCEEQYGSTYRCVSVLTVLHQDWLNGKEYKCKVSNKALPAPIEKTISKAKGQPREPQVYTLPPSREEMTKNQVSLTCLVKGFYPSDIAVEWESNGQPENNYKTTPPVLDSDGSFFLYSKLTVDKSRWQQGNVFSCSVMHEALHNHYTQKSLSLSPGK
B3: variant PD-L1 IgV-Fc P6S, N45T, N78I, I83T (Fc fusion)
chain: B2 chain with P6S, D33A, N45T, P75S, N78I, I83T, V97M
B4: variant PD-L1 IgV-Fc A33D, N45T, N78I (Fc fusion)
chain: B2 chain with N45T, P75S, N78I, V97M
B5: variant PD-L1 IgV-Fc A33D, S75P, D104G (Fc fusion)
chain: B2 chain with V97M, D104G
B6: variant PD-L1 IgV-Fc A33D, V50A (Fc fusion)
chain: B2 chain with V50A, P75S, V97M
B7: variant PD-L1 IgV-Fc I20L, N45T, V110M (Fc fusion)
chain: B2 chain with I20L, D33A, N45T, P75S, V97M, V110M
B8: variant PD-L1 IgV-Fc S75P, K106R (Fc fusion)
chain: B2 chain with D33A, V97M, K106R
B9: variant PD-L1 IgV-Fc A33D, S75P (SEQ ID NO 285) (Fc fusion)
chain: B2 chain

For one experiment, the target named is human PD-1 and human TIGIT both stably expressed on Jurkat cells (Jurkat/PD-1/TIGIT cells). The experiment in a line: flow cytometry, Jurkat/PD-1/TIGIT cells, 20 nM.
For B1, the MFI at 20 nM was found to be 7910 MFI.

The target in the next experiment is human PD-1 stably expressed on Jurkat/IL-2 reporter cells (Jurkat/PD-1 cells) (human) (UniProt Q15116). The experiment can be described thus: flow cytometry, Jurkat/PD-1 cells.
human PD-1 stably expressed on Jurkat/IL-2 reporter cells (Jurkat/PD-1 cells) (human), sequence (Q15116 25-288 limits assumed): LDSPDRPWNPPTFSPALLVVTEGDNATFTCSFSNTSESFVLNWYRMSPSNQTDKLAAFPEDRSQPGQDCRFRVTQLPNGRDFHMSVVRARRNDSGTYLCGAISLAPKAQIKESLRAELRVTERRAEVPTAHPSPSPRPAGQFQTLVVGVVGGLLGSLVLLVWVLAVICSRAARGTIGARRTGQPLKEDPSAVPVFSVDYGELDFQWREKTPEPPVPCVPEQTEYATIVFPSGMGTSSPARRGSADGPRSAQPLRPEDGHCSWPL
For B2, the MFI at 50 nM came out at 306 MFI.

For a further experiment the target is unchanged. The experiment can be described thus: flow cytometry, Jurkat/PD-1 cells, MFI vs wildtype PD-L1 IgV-Fc.
In turn, B2 returned a Fold increase over wildtype PD-L1 IgV-Fc of 0.1 fold.

Another experiment has as its target TIGIT/CD112R/PD1 (Jurkat/PD-1/TIGIT cells carrying PD-1, TIGIT and endogenous CD112R). The experiment in a line: flow cytometry, Jurkat/PD-1/TIGIT cells.
B1 showed an MFI at 33.3nM of 961 MFI.

In the next experiment the target is PD-1 (human) (UniProt Q15116). The experiment in a line: cell-based or functional assay.
PD-1 (human), sequence (Q15116 25-288): as the sequence (Q15116 25-288 limits assumed) above
The molecule B3 had an Average Relative Luminescence Units of 2250 RLU and a Fold increase in IL2 reporter signal of 1.01 fold.

With B4, the Average Relative Luminescence Units worked out at 1970 RLU and the Fold increase in IL2 reporter signal was found to be 0.89 fold.

Molecule B5 displayed an Average Relative Luminescence Units of 2170 RLU and a Fold increase in IL2 reporter signal of 0.97 fold.

Take B6: the Average Relative Luminescence Units is 2250 RLU and the Fold increase in IL2 reporter signal stood at 1.01 fold.

For B7, the Average Relative Luminescence Units came to 2210 RLU and the Fold increase in IL2 reporter signal was determined as 0.99 fold.

In turn, B8 displayed an Average Relative Luminescence Units of 2130 RLU and a Fold increase in IL2 reporter signal of 0.95 fold.

With B9, the Average Relative Luminescence Units turned out to be 2170 RLU and the Fold increase in IL2 reporter signal amounted to 0.97 fold.
